This is an account of results in article PMC9372576, “Interaction of the gas vesicle proteins GvpA, GvpC, GvpN, and GvpO of Halobacterium salinarum” (Frontiers in Microbiology, 2022).

First the molecules themselves.
B1: GvpA fragment A1-22 (domain or fragment, Halobacterium salinarum, UniProt P08958 1-22, looked up)
chain: MAQPDSSGLAEVLDRVLDKGVV
notes: GvpA of Halobacterium salinarum, the first 22 aa including alpha-helix 1; vector described in Winter et al., 2018 and Voelkner et al., 2020; source: Hfx. volcanii WR340 transformant, split-GFP fusion in living cells

Experiment in all cases: split reporter (BiFC, NanoBiT); split-GFP (NGFP and CGFP of salt-stable mGFP2) in Hfx. volcanii transformants, 24 h 37 °C then 24 h 30 °C; relative fluorescence (rf) against the wild type; the highest of eight tag combinations is given
One data set addresses T1, GvpA fragment A1-34 (Halobacterium salinarum, UniProt P08958 1-34).
T1 construct: GvpA of Halobacterium salinarum, alpha1 plus beta-sheet 1; vector described in earlier work; source: Hfx. volcanii WR340 transformant, split-GFP fusion in living cells
T1 chain (looked up): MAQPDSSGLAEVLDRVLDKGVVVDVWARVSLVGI
The note with it: partners not purified.

In a further data set the target is T2, GvpA fragment A1-43 (Halobacterium salinarum, UniProt P08958 1-43).
T2 construct: GvpA of Halobacterium salinarum, alpha1-beta1-beta2; vector described in earlier work; source: Hfx. volcanii WR340 transformant, split-GFP fusion in living cells
T2 chain (looked up): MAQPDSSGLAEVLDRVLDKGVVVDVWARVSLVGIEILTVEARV
The following applies: partners not purified.

The target of the next data set is T3, GvpA fragment A20-47 (Halobacterium salinarum, UniProt P08958 20-47).
T3 construct: GvpA of Halobacterium salinarum, the two beta-sheets beta1-beta2; vector described in earlier work; source: Hfx. volcanii WR340 transformant, split-GFP fusion in living cells
T3 chain (looked up): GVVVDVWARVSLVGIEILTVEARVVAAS
The note with it: partners not purified.

The target of another data set is T4, GvpA fragment A44-76 (Halobacterium salinarum, UniProt P08958 44-76).
T4 construct: GvpA of Halobacterium salinarum, mainly helix alpha3; vector described in earlier work; source: Hfx. volcanii WR340 transformant, split-GFP fusion in living cells
T4 chain (looked up): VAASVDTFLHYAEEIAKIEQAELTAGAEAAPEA
The following applies: partners not purified.

Data set [1] deals with T5, GvpA fused to NGFP or CGFP (Halobacterium salinarum, UniProt P08958 1-76).
T5 construct: the entire GvpA of the p-vac region of Halobacterium salinarum; gvpA reading frame; NGFP (mGFP2 up to aa 157) or CGFP (from aa 158) at the N- or C-terminus through a 14 aa (pJAS) or 16 aa (pWLfdx) linker; with GvpF and its variants CGFP stood at the C-terminus of GvpA (AC); also called NA; AN; source: Hfx. volcanii WR340 transformant, split-GFP fusion in living cells
T5 sequence (looked up): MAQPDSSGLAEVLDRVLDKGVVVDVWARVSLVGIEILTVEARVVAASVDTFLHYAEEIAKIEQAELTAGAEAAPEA
The following applies: partners not purified.

The target of data set [2] is T6, GvpC C-terminal fragment Cterm (Halobacterium salinarum, UniProt P24574 329-382).
T6 construct: GvpC of Halobacterium salinarum, aa 329-382, the globular C-terminal domain with a zinc-finger motif; GFP fragment at the N- or C-terminus; source: Hfx. volcanii WR340 transformant, split-GFP fusion in living cells
T6 sequence (looked up): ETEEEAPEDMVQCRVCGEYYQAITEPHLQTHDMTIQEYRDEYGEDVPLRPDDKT
The note with it: partners not purified.

The target in the data set “GvpA fragment A1-22” is B1. The note with it: partners not purified.
Data set [3] deals with T7, GvpC fused to NGFP or CGFP (Halobacterium salinarum, UniProt P24574 1-382).
T7 construct: GvpC of the p-vac region of Halobacterium salinarum; gvpC amplified from the p-vac region; GFP fragment at the N- or C-terminus, 14 or 16 aa linker; source: Hfx. volcanii WR340 transformant, split-GFP fusion in living cells
T7 sequence (looked up): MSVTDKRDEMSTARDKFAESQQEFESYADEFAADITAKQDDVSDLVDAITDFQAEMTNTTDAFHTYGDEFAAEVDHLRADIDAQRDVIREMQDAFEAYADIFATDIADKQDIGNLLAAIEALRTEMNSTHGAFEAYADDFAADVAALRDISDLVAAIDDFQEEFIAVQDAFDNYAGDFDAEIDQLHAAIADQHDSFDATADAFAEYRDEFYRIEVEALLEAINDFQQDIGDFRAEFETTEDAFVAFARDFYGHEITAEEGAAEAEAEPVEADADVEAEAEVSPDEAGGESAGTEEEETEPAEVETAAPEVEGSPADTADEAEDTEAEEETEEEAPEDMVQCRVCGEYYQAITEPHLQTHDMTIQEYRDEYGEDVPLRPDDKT
The following applies: partners not purified.

In data set [4] the target is T8, GvpN fused to NGFP or CGFP (Halobacterium salinarum, UniProt Q9HI16 1-347).
T8 construct: GvpN of the p-vac region of Halobacterium salinarum; gvpN amplified from the p-vac region; GFP fragment at the N- or C-terminus, 14 or 16 aa linker; source: Hfx. volcanii WR340 transformant, split-GFP fusion in living cells
T8 sequence (looked up): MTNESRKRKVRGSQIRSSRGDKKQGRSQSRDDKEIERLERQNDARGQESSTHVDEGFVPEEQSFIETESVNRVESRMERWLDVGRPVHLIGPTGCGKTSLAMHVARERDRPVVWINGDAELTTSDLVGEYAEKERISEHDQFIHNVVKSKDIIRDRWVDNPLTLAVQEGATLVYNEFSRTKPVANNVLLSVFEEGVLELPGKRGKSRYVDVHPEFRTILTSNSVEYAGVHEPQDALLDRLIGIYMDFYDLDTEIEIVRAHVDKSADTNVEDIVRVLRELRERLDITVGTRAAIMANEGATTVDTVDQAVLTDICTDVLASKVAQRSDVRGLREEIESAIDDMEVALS
The following applies: partners not purified.

Data set [5] deals with the molecule itself.

Where only a bound is given, the exact number is not on record here.

On to B1, for which the “relative fluorescence (rf)” value with GvpA fragment A1-34, with GvpA fragment A1-43, in the data set with GvpA fragment A20-47 and with GvpA fragment A44-76 was at most 0.48 LAU/mm^2 each time.

B2: GvpC N-terminal fragment Nterm (domain or fragment, Halobacterium salinarum, UniProt P24574 10-130, looked up)
chain: MSTARDKFAESQQEFESYADEFAADITAKQDDVSDLVDAITDFQAEMTNTTDAFHTYGDEFAAEVDHLRADIDAQRDVIREMQDAFEAYADIFATDIADKQDIGNLLAAIEALRTEMNSTH
notes: GvpC of Halobacterium salinarum, amino acids 10-130, the first three alpha-helical repeats; GFP fragment at the N- or C-terminus; source: Hfx. volcanii WR340 transformant, split-GFP fusion in living cells
With B2, the “relative fluorescence (rf)” value was below 2.5 LAU/mm^2 in data set [1], 10.1 LAU/mm^2 in [2] and 3.57 LAU/mm^2 in the data set with GvpA fragment A1-22.

B3: GvpO fused to NGFP or CGFP (natural protein, Halobacterium salinarum, UniProt O51968 1-119, looked up)
chain: MADPANDRSEREEGGEDDETPPASDGNPSPSANSFTLSNAQTRAREAAQDLLEHQFEGMIKAESNDEGWRTVVEVVERNAVPDTQDIIGRYEITLDGTGDVTGYELLERYRRGDMKEEL
notes: GvpO of the p-vac region of Halobacterium salinarum; gvpO amplified from the p-vac region; GFP fragment at the N- or C-terminus, 14 or 16 aa linker; source: Hfx. volcanii WR340 transformant, split-GFP fusion in living cells
As for B3, the “relative fluorescence (rf)” value in data set [3] was below 5 LAU/mm^2; in data set [4] it was 12.5 LAU/mm^2; with GvpA fragment A1-22 it was 3 LAU/mm^2; in data set [5] it was above 10 LAU/mm^2.
